How the values were obtained:
Test in all cases: cell-based or functional assay
[1] = molecular target: HIV-1 MGRM-AG-002 Env (HIV-1)
[2] = molecular target: HIV-1 92WR026 Env (HIV-1)
[3] = molecular target: HIV-1 MGRM-AE-008 Env (HIV-1)
[4] = molecular target: HIV-1 MGRM-A-002 Env (HIV-1)
[5] = molecular target: HIV-1 MGRM-A-011 Env (HIV-1)
[6] = molecular target: HIV-1 93UG077 Env (HIV-1)
[7] = molecular target: HIV-1 MGRM-AG-006 Env (HIV-1)
[8] = molecular target: HIV-1 MGRM-A-010 Env (HIV-1)
[9] = molecular target: HIV-1 MGRM-A-004 Env (HIV-1)
[10] = molecular target: HIV-1 Env of isolate MG RM-C-022 (subtype C) (HIV-1)
[11] = molecular target: HIV-1 MGRM-A-006 Env (HIV-1)
[12] = molecular target: HIV-1 Env of isolate MG RM-C-026 (subtype C) (HIV-1)
[13] = molecular target: HIV-1 Env of isolate MG RM-C-028 (subtype C) (HIV-1)
[14] = molecular target: HIV-1 Env of isolate MG RM-C-023 (subtype C) (HIV-1)
[15] = molecular target: HIV-1 92UG037 Env (HIV-1)
[16] = molecular target: HIV-1 MGRM-A-008 Env (HIV-1)
[17] = molecular target: HIV-1 Env of isolate MG RM-C-019 (subtype C) (HIV-1)
[18] = molecular target: HIV-1 MGRM-A-009 Env (HIV-1)
[19] = molecular target: HIV-1 MGRM-AG-009 Env (HIV-1)
HIV-1 VLGCA1 Env (HIV-1) = molecular target: HIV-1 VLGCA1 Env (HIV-1)
[20] = molecular target: HIV-1 92TH021 Env (HIV-1)
[21] = molecular target: HIV-1 MGRM-AG-001 Env (HIV-1)
[22] = molecular target: HIV-1 MGRM-AE-006 Env (HIV-1)
[23] = molecular target: HIV-1 MGRM-A-007 Env (HIV-1)
[24] = molecular target: HIV-1 MGRM-AE-004 Env (HIV-1)
[25] = molecular target: HIV-1 92WR024 Env (HIV-1)
[26] = molecular target: HIV-1 Env of isolate MG RM-C-020 (subtype C) (HIV-1)
[27] = molecular target: HIV-1 92WR020 Env (HIV-1)
[28] = molecular target: HIV-1 MGRM-A-001 Env (HIV-1)
[29] = molecular target: HIV-1 MGRM-AE-007 Env (HIV-1)
[30] = molecular target: HIV-1 MGRM-AE-002 Env (HIV-1)
[31] = molecular target: HIV-1 MGRM-A-005 Env (HIV-1)
[32] = molecular target: HIV-1 MGRM-A-012 Env (HIV-1)
[33] = molecular target: HIV-1 MGRM-AE-005 Env (HIV-1)
[34] = molecular target: HIV-1 92UG031 Env (HIV-1)
[35] = molecular target: HIV-1 MGRM-AE-001 Env (HIV-1)
[36] = molecular target: HIV-1 MGRM-A-014 Env (HIV-1)
[37] = molecular target: HIV-1 MGRM-AG-013 Env (HIV-1)
[38] = molecular target: HIV-1 MGRM-A-013 Env (HIV-1)
[39] = molecular target: HIV-1 94KE105 Env (HIV-1)
[40] = molecular target: HIV-1 MGRM-A-003 Env (HIV-1)
[41] = molecular target: HIV-1 MGRM-AE-003 Env (HIV-1)
[42] = molecular target: HIV-1 Env of isolate MG RM-C-027 (subtype C) (HIV-1)
[43] = molecular target: HIV-1 MGRM-AG-003 Env (HIV-1)
[44] = molecular target: HIV-1 Env of isolate MG RM-C-025 (subtype C) (HIV-1)
HIV-1 CMU02 Env (HIV-1) = molecular target: HIV-1 CMU02 Env (HIV-1)
[45] = molecular target: HIV-1 94UG103 Env (HIV-1)
[46] = molecular target: HIV-1 92WR021 Env (HIV-1)
[47] = molecular target: HIV-1 93WR029 Env (HIV-1)
[48] = molecular target: HIV-1 MGRM-AG-011 Env (HIV-1)
[49] = molecular target: HIV-1 Env of isolate MG RM-C-024 (subtype C) (HIV-1)
[50] = molecular target: HIV-1 92RW008 Env (HIV-1)
[51] = molecular target: HIV-1 MGRM-AG-008 Env (HIV-1)
[52] = molecular target: HIV-1 92WR009 Env (HIV-1)
[53] = molecular target: HIV-1 MGRM-AG-005 Env (HIV-1)
[54] = molecular target: HIV-1 MGRM-AG-012 Env (HIV-1)
[55] = molecular target: HIV-1 Env of isolate APV_6 (HIV-1)
[56] = molecular target: HIV-1 Env of isolate NL43 (HIV-1)
[57] = molecular target: HIV-1 Env of isolate SF162 (HIV-1) (UniProt P19550)
[58] = molecular target: HIV-1 Env of isolate MGRM-Chronic-B-020 (HIV-1)
[59] = molecular target: HIV-1 Env of isolate VLGCB3 (HIV-1)
[60] = molecular target: HIV-1 Env of isolate MGRM-Chronic-B-002 (HIV-1)
[61] = molecular target: HIV-1 Env of isolate JRFL (HIV-1)
[62] = molecular target: HIV-1 Env of isolate MGRM-Chronic-B-004 (HIV-1)
[63] = molecular target: HIV-1 Env of isolate APV_13 (HIV-1)
[64] = molecular target: HIV-1 Env of isolate MGRM-Chronic-B-023 (HIV-1)
[65] = molecular target: HIV-1 Env of isolate JRCSF (HIV-1) (UniProt P20871)
[66] = molecular target: HIV-1 Env of isolate 98IN022 (HIV-1)
[67] = molecular target: HIV-1 Env of isolate MGRM-Chronic-B-024 (HIV-1)
[68] = molecular target: HIV-1 Env of isolate 97ZA012 (HIV-1)
[69] = molecular target: HIV-1 Env of isolate MGRM-Chronic-B-012 (HIV-1)
[70] = molecular target: HIV-1 Env of isolate MGRM-Chronic-B-001 (HIV-1)
[71] = molecular target: HIV-1 Env of isolate MGRM-Chronic-B-008 (HIV-1)
[72] = molecular target: HIV-1 Env of isolate MGRM-Chronic-B-011 (HIV-1)
[73] = molecular target: HIV-1 Env of isolate MGRM-Chronic-B-003 (HIV-1)
[74] = molecular target: HIV-1 Env of isolate 93TH305 (HIV-1)
[75] = molecular target: HIV-1 Env of isolate 93IN905 (HIV-1)
[76] = molecular target: HIV-1 Env of isolate APV_17 (HIV-1)
[77] = molecular target: HIV-1 Env of isolate TRJ04551.58 (HIV-1)
[78] = molecular target: HIV-1 Env of isolate QH0692.42 (HIV-1)
[79] = molecular target: HIV-1 Env of isolate TRO.11 (HIV-1)
[80] = molecular target: HIV-1 Env of isolate 92 BR 020 (HIV-1)
[81] = molecular target: HIV-1 Env of isolate CAAN.A2 (HIV-1)
[82] = molecular target: HIV-1 Env of isolate MGRM-Chronic-B-010 (HIV-1)
[83] = molecular target: HIV-1 Env of isolate MGRM-Chronic-B-018 (HIV-1)
[84] = molecular target: HIV-1 Env of isolate 93MW959 (HIV-1)
[85] = molecular target: HIV-1 Env of isolate THR0.18 (HIV-1)
[86] = molecular target: HIV-1 Env of isolate MGRM-Chronic-B-017 (HIV-1)
[87] = molecular target: HIV-1 Env of isolate 6535.3 (HIV-1)
[88] = molecular target: HIV-1 Env of isolate SC422661.8 (HIV-1)
[89] = molecular target: HIV-1 Env of isolate PVO.4 (HIV-1)

Chain of 5345_I01 (PGT-137) (antibody) (VH): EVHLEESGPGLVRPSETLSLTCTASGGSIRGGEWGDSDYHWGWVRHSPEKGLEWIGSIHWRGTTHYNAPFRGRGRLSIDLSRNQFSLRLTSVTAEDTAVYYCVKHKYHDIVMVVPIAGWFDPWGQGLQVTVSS
Chain of 5345_I01 (PGT-137) (antibody) (VL): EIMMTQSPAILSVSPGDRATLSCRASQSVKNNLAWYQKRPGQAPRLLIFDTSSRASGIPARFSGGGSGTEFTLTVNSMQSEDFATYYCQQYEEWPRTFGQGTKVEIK

5343_B08 (PGT-135) (antibody)
0.636 µg/mL: IC50 [36]
0.004 µg/mL: IC50 [12]
17.9 µg/mL: IC50 [7]
> 50 µg/mL: IC50 [1] | IC50 [3] | IC50 [4] | IC50 [5] | IC50 [6] | IC50 [8] | IC50 [9] | IC50 [10] | IC50 [11] | IC50 [16] | IC50 [18] | IC50 [19] | IC50 (HIV-1 VLGCA1 Env (HIV-1)) | IC50 [20] | IC50 [21] | IC50 [22] | IC50 [23] | IC50 [24] | IC50 [25] | IC50 [26] | IC50 [28] | IC50 [29] | IC50 [30] | IC50 [31] | IC50 [32] | IC50 [33] | IC50 [34] | IC50 [35] | IC50 [37] | IC50 [38] | IC50 [40] | IC50 [41] | IC50 [42] | IC50 [43] | IC50 [44] | IC50 (HIV-1 CMU02 Env (HIV-1)) | IC50 [45] | IC50 [46] | IC50 [47] | IC50 [48] | IC50 [49] | IC50 [51] | IC50 [52] | IC50 [53]
3.67 µg/mL: IC50 [15]
41.9 µg/mL: IC50 [54]
0.264 µg/mL: IC50 [17]
0.063 µg/mL: IC50 [39]
0.061 µg/mL: IC50 [14]
1.47 µg/mL: IC50 [13]
0.068 µg/mL: IC50 [2]
0.067 µg/mL: IC50 [27]
1.42 µg/mL: IC50 [50]

5345_I01 (PGT-137) (antibody)
28.3 µg/mL: IC50 [7]
49.2 µg/mL: IC50 [38]
0.23 µg/mL: IC50 [14]
> 50 µg/mL: IC50 [1] | IC50 [3] | IC50 [4] | IC50 [5] | IC50 [6] | IC50 [8] | IC50 [9] | IC50 [10] | IC50 [11] | IC50 [13] | IC50 [15] | IC50 [16] | IC50 [17] | IC50 [18] | IC50 [19] | IC50 (HIV-1 VLGCA1 Env (HIV-1)) | IC50 [20] | IC50 [21] | IC50 [22] | IC50 [23] | IC50 [24] | IC50 [25] | IC50 [26] | IC50 [28] | IC50 [29] | IC50 [30] | IC50 [31] | IC50 [32] | IC50 [33] | IC50 [34] | IC50 [35] | IC50 [37] | IC50 [40] | IC50 [41] | IC50 [42] | IC50 [43] | IC50 [44] | IC50 (HIV-1 CMU02 Env (HIV-1)) | IC50 [45] | IC50 [47] | IC50 [48] | IC50 [49] | IC50 [51] | IC50 [52] | IC50 [53] | IC50 [54]
18.5 µg/mL: IC50 [39]
0.092 µg/mL: IC50 [2]
18.6 µg/mL: IC50 [36]
3.52 µg/mL: IC50 [46]
0.148 µg/mL: IC50 [50]
0.005 µg/mL: IC50 [27]
0.011 µg/mL: IC50 [12]

PGT-128 monoclonal antibody (5114_A19)
0.036 µg/mL: neutralization IC50 [60]
0.008 µg/mL: neutralization IC50 [63]
1.58 µg/mL: neutralization IC50 [88]
0.005 µg/mL: neutralization IC50 [89]
0.045 µg/mL: neutralization IC50 [84]
0.011 µg/mL: neutralization IC50 [87]
0.003 µg/mL: neutralization IC50 [65]
0.014 µg/mL: neutralization IC50 [66]
0.019 µg/mL: neutralization IC50 [68] | neutralization IC50 [77]
0.016 µg/mL: neutralization IC50 [76]
1.48 µg/mL: neutralization IC50 [81]
0.009 µg/mL: neutralization IC50 [62] | neutralization IC50 [75] | neutralization IC50 [80]
> 50 µg/mL: neutralization IC50 [56] | neutralization IC50 [64] | neutralization IC50 [67] | neutralization IC50 [70] | neutralization IC50 [85] | neutralization IC50 [86]
0.018 µg/mL: neutralization IC50 [79]
0.004 µg/mL: neutralization IC50 [82]
0.012 µg/mL: neutralization IC50 [59]
0.02 µg/mL: neutralization IC50 [72] | neutralization IC50 [83]
0.006 µg/mL: neutralization IC50 [74]
0.007 µg/mL: neutralization IC50 [55] | neutralization IC50 [57] | neutralization IC50 [58] | neutralization IC50 [61] | neutralization IC50 [73]
0.026 µg/mL: neutralization IC50 [69]
0.143 µg/mL: neutralization IC50 [71]
0.029 µg/mL: neutralization IC50 [78]
